Test results: patent US12331106B2, “Anti-angiopoietin-2 antibodies that induce Tie2 activation” (Institute for Basic Science, priority 2018, dated 2025)
Entries after “also recorded” stand apart in the source; their conditions may differ. Read-outs that look alike come from different tables or passages of the source.

Experiments:
[1] = test system: downstream signaling of the Tie2 receptor (Akt phosphorylation) in HUVECs; assay: Akt phosphorylation in HUVECs by mouse anti-Ang2 antibodies plus hAng2 (immunoblot); format: cell-based, human; details: serum-starved HUVECs; antibody combined with hAng2 1 μg/ml; 30 min
Protocol: To investigate whether the mouse anti-Ang2 antibodies induce the downstream signaling of the Tie2 receptor in endothelial cells, HUVECs (LONZA™) were treated with a combination of hAng2 protein and anti-Ang2 antibody, and then the level of Akt phosphorylation, the main downstream signaling protein of Tie2 receptor, was analyzed by immunoblotting. As a negative control group, the full-length hAng2 (R&D® Systems) alone was treated into the cells.
Specifically, HUVECs (1×10^5 cells/ml) were cultured in EGM-2 medium (LONZA™) at 37° C. in a 60 mm culture dish. Cells (90% confluency) were incubated with serum-free EBM-2 medium for 4 hrs for serum starvation. The serum-starved HUVECs were treated with a mixture of anti-Ang2 antibody and hAng2 protein (1 μg/ml, R&D® Systems) and further incubated for 30 min. The cells were washed with cold PBS, treated with lysis buffer, and lysed at 4° C. for 20 min. Then, the cell lysates were prepared by centrifugation at 13000 rpm for 15 min. 5× SDS sample buffer was added to the cell lysate and the cell lysate was boiled at 95° C. for 5 min. Then, the cell lysate was subjected to SDS PAGE and proteins were transferred to a nitrocellulose membrane (GE).
To investigate Akt phosphorylation, the blot was blocked with 5% skim milk-containing TBS-T for 1 hr at room temperature (RT), and incubated with anti-phospho-Akt antibody (S473) at 4° C. for about 8 hrs. The amount of phospho-Akt was visualized by an enhanced chemiluminescence (ECL). Then, the membrane was incubated in a stripping buffer (Thermo) for 15 min, and then reprobed with an anti-Akt antibody to determine the amount of total Akt.

hAng2-RBD = molecular target: T1, hAng2-RBD (Homo sapiens, UniProt O15123); format: binding; details: for Relative Uptake (Da) Δ: 4B9
T1 construct: made in house; host or cells: HEK293F
T1 sequence (O15123 276-496): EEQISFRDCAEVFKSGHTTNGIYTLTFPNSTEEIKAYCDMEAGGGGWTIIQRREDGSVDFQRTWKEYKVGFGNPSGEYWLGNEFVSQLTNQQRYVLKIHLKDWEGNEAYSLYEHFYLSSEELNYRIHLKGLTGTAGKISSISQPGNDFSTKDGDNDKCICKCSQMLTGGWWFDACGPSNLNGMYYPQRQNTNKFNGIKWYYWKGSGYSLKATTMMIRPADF
Protocol: The antigenic determinants (epitopes) of hAng2 recognized by mouse monoclonal antibodies, 2C8 and 4B9, were analyzed by HDX-MS (Hydrogen/deuterium exchange-mass spectrometry) technique. HDX-MS analysis methods are described in the following articles; Houde D, Engen J R (2013) Methods Mol. Biol. 988: 269-89 and Houde et al. (2011) J. Pharm. Sci. 100 (6), 2071.
Recombinant hAng2-RBD protein was used to analyze the epitopes of antibodies 2C8 and 4B9. […] The prepared hAng2-RBD/antibody complexes were diluted 15 times with deuterium labeling buffer, labeled at various time, and then quenched with the same volume of quenching buffer. The labeling reaction time was 0 min (undeuterium), 0.33 min, 10 min, 60 min and 240 min. However, in undeuterium condition, the deuterium labeling buffer was replaced with equilibrium buffer and the reaction was immediately stopped with quenching buffer. For mass spectrometry, the deuterium labeled hAng2-RBD/antibody samples were loaded on a pepsin column and peptide digestion was proceeded.
The deuterium uptake difference between hAng2-RBD alone and the hAng2-RBD-antibody complex conditions was comparatively analyzed, and a region showing a distinct decrease in the deuterium uptake is either a peptide to which the antibody binds directly, or a structurally changed region. When the deuterium uptake difference between hAng2-RBD alone and the hAng2-RBD-antibody complex was 0.5-1 Da or more, it was considered significant.
In the case of antibody 4B9, it cannot be ruled out that an undetermined region (residues 25 to 40 of SEQ ID NO: 2) can be included in the scope of the epitope. The epitope analysis results for each antibody are shown in different colors on the 3D structure of hAng2-RBD, which was generated using PyMol software (FIG. 2).

[2] = residues 14-23 (SEQ ID NO: 2), exposure time 0.00 min
[3] = residues 14-23 (SEQ ID NO: 2), exposure time 0.33 min
[4] = residues 14-23 (SEQ ID NO: 2), exposure time 10.00 min
[5] = residues 14-23 (SEQ ID NO: 2), exposure time 60.00 min
[6] = residues 14-23 (SEQ ID NO: 2), exposure time 240.00 min
[7] = residues 14-24 (SEQ ID NO: 2), exposure time 0.00 min
[8] = residues 14-24 (SEQ ID NO: 2), exposure time 0.33 min
[9] = residues 14-24 (SEQ ID NO: 2), exposure time 10.00 min
[10] = residues 14-24 (SEQ ID NO: 2), exposure time 60.00 min
[11] = residues 14-24 (SEQ ID NO: 2), exposure time 240.00 min
[12] = residues 41-47 (SEQ ID NO: 2), exposure time 0.00 min
[13] = residues 41-47 (SEQ ID NO: 2), exposure time 0.33 min
[14] = residues 41-47 (SEQ ID NO: 2), exposure time 10.00 min
[15] = residues 41-47 (SEQ ID NO: 2), exposure time 60.00 min
[16] = residues 41-47 (SEQ ID NO: 2), exposure time 240.00 min
[17] = residues 47-60 (SEQ ID NO: 2), exposure time 0.00 min
[18] = residues 47-60 (SEQ ID NO: 2), exposure time 0.33 min
[19] = residues 47-60 (SEQ ID NO: 2), exposure time 10.00 min
[20] = residues 47-60 (SEQ ID NO: 2), exposure time 60.00 min
[21] = residues 47-60 (SEQ ID NO: 2), exposure time 240.00 min

Akt phosphorylation at S473 [1]: strongly induced
Relative Uptake (Da) Δ (hAng2-RBD; [2]): 0.25 Da
Relative Uptake (Da) Δ (hAng2-RBD; [3]): 0.34 Da
Relative Uptake (Da) Δ (hAng2-RBD; [4]): 0.83 Da
Relative Uptake (Da) Δ (hAng2-RBD; [5]): 0.78 Da
Relative Uptake (Da) Δ (hAng2-RBD; [6]): 0.60 Da
Relative Uptake (Da) Δ (hAng2-RBD; [7]): 0.01 Da
Relative Uptake (Da) Δ (hAng2-RBD; [8]): 0.33 Da
Relative Uptake (Da) Δ (hAng2-RBD; [9]): 1.50 Da
Relative Uptake (Da) Δ (hAng2-RBD; [10]): 1.35 Da
Relative Uptake (Da) Δ (hAng2-RBD; [11]): 0.80 Da
Relative Uptake (Da) Δ (hAng2-RBD; [12]): 0.15 Da
Relative Uptake (Da) Δ (hAng2-RBD; [13]): 1.02 Da
Relative Uptake (Da) Δ (hAng2-RBD; [14]): 0.92 Da
Relative Uptake (Da) Δ (hAng2-RBD; [15]): 1.15 Da
Relative Uptake (Da) Δ (hAng2-RBD; [16]): 1.18 Da
Relative Uptake (Da) Δ (hAng2-RBD; [17]): 0.05 Da
Relative Uptake (Da) Δ (hAng2-RBD; [18]): −0.13 Da
Relative Uptake (Da) Δ (hAng2-RBD; [19]): −0.06 Da
Relative Uptake (Da) Δ (hAng2-RBD; [20]): −0.01 Da
Relative Uptake (Da) Δ (hAng2-RBD; [21]): −0.11 Da
Relative Uptake (Da) hAng2-RBD + 4B9 (hAng2-RBD; [2]): 0.55 Da
Relative Uptake (Da) hAng2-RBD + 4B9 (hAng2-RBD; [3]): 0.97 Da
Relative Uptake (Da) hAng2-RBD + 4B9 (hAng2-RBD; [4]): 1.38 Da
Relative Uptake (Da) hAng2-RBD + 4B9 (hAng2-RBD; [5]): 1.49 Da
Relative Uptake (Da) hAng2-RBD + 4B9 (hAng2-RBD; [6]): 1.66 Da
Relative Uptake (Da) hAng2-RBD + 4B9 (hAng2-RBD; [7]): 0.76 Da
Relative Uptake (Da) hAng2-RBD + 4B9 (hAng2-RBD; [8]): 1.27 Da
Relative Uptake (Da) hAng2-RBD + 4B9 (hAng2-RBD; [9]): 1.75 Da
Relative Uptake (Da) hAng2-RBD + 4B9 (hAng2-RBD; [10]): 2.05 Da
Relative Uptake (Da) hAng2-RBD + 4B9 (hAng2-RBD; [11]): 2.61 Da
Relative Uptake (Da) hAng2-RBD + 4B9 (hAng2-RBD; [12]): 0.16 Da
Relative Uptake (Da) hAng2-RBD + 4B9 (hAng2-RBD; [13]): 0.20 Da
Relative Uptake (Da) hAng2-RBD + 4B9 (hAng2-RBD; [14]): 0.43 Da
Relative Uptake (Da) hAng2-RBD + 4B9 (hAng2-RBD; [15]): 0.54 Da
Relative Uptake (Da) hAng2-RBD + 4B9 (hAng2-RBD; [16]): 0.61 Da
Relative Uptake (Da) hAng2-RBD + 4B9 (hAng2-RBD; [17]): 0.96 Da
Relative Uptake (Da) hAng2-RBD + 4B9 (hAng2-RBD; [18]): 1.94 Da
Relative Uptake (Da) hAng2-RBD + 4B9 (hAng2-RBD; [19]): 2.53 Da
Relative Uptake (Da) hAng2-RBD + 4B9 (hAng2-RBD; [20]): 2.69 Da
Relative Uptake (Da) hAng2-RBD + 4B9 (hAng2-RBD; [21]): 3.06 Da
B1: 4B9: mouse monoclonal anti-Ang2 antibody; VH SEQ ID NO: 9, VL SEQ ID NO: 11; hybridoma KCLRF-BP-00418 (antibody, V domains shown)
VH: EVQLVESGGGLVKPGGSLKLSCAASGFTFSDYYMYWVRQTPEKRLEWVATISVGGSFTYYPDSVKGRFTISRDNAKNNLYLQMSSLKSEDTAMYYCARDWGLRPWFVYWGQGTLVTVSA
VL: DIVMTQSHKFMSTSVGDRVSITCKASQDVSTAVAWYQQKPGQSPKLLIYWASTRHTGVPDRFTGSGSGTDYTLTISSVQAEDLALYYCQQHYSTPPTFGSGTKLEIK
modifications: Heavy Chain Variable Region; Light Chain Variable Region
notes: mouse monoclonal anti-Ang2 antibody; hybridoma KCLRF-BP-00418
epitope of hAng2-RBD to which the antibody binds (hAng2-RBD; deuterium uptake difference 0.5-1 Da or more considered significant): residues 14 to 24 of SEQ ID NO: 2; also recorded: residues 41 to 47 of SEQ ID NO: 2
